In US20240254233A1 (IMMUNEONCIA THERAPEUTICS, published 2024):

B1: IMC-001 (antibody, V domains shown)
VH: QMQLVQSGAEVKKPGSSVKVSCKASGGTFSSYAYSWVRQAPGQGLEWMGGIIPSFGTANYAQKFQGRVTITADESTSTAYMELSSLRSEDTAVYYCARGPIVATITPLDYWGQGTLVTVSS
VL: SYVLTQPPSVSVAPGKTATIACGGENIGRKTVHWYQQKPGQAPVLVIYYDSDRPSGIPERFSGSNSGNTATLTISRVEAGDEADYYCLVWDSSSDHRIFGGGTKLTVL
B2: IMC-002 (antibody, V domains shown)
VH: QVQLVQSGAEVKKPGASVKVSCKASGYTFTSYYMHWVRQAPGQGLEWMGIINPSGGSTSYAQKFQGRVTMTRDTSTSTVYMELSSLRSEDTAVYYCARSTLWVSEFDYWGQGTLVTVSS
VL: QSALTQPASVSGSPGQSISISCTGTSSDVGGHNYVSWYQQHPGKAPKLMIYDVRNRPSGVSNRFSGSKSGSTASLTISGLQTEDEADYYCNSYTGSRTYVFGSGTKLTVLG
B3: IMC-201 (bispecific antibody, human IgG1, lambda)
heavy: not shown
light: QSALTQPASVSGSPGQSISISCTGTSSDVGGHNYVSWYQQHPGKAPKLMIYDVRNRPSGVSNRFSGSKSGSTASLTISGLQTEDEADYYCNSYTGSRTYVFGSGTKLTVLGQPKAAPSVTLFPPSSEELQANKATLVCLISDFYPGAVTVAWKADSSPVKAGVETTTPSKQSNNKYAASSYLSLTPEQWKSHRSYSCQVTHEGSTVEKTVAPTECS
notes: also called Ab 1159.1

How the values were obtained:
recombinant human PD-L1 = target: T1, recombinant human PD-L1 (human, UniProt Q9NZQ7 19-238, limits assumed); assay: ELISA, recombinant human PD-L1 coated at 75 ng/well, anti-human IgG Fcγ-HRP detection
T1 construct: also called single ligand (PD-L1)
T1 sequence (Q9NZQ7 19-238 limits assumed): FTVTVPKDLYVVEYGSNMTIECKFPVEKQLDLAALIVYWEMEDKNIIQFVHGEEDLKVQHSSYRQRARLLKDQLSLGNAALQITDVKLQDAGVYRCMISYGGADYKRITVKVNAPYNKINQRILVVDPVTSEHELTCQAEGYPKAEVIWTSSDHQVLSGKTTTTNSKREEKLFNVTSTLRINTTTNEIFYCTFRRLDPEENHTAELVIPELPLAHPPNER

recombinant human CD47 = target: T2, recombinant human CD47 (human, UniProt Q08722 19-139, limits assumed); assay: ELISA, recombinant human CD47 coated at 50 ng/well, anti-human IgG Fcγ-HRP detection
T2 construct: also called single ligand (CD47)
T2 sequence (Q08722 19-139 limits assumed): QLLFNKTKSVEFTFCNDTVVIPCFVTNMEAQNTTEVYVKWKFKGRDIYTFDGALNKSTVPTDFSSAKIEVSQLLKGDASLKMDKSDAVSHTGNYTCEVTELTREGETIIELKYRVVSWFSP

[1] = target: T3, recombinant human CD47-fc (human, UniProt Q08722 19-139, limits assumed); assay: dual-ligand (bridging) ELISA: CD47-fc coated, antibody titrated, then PD-L1-his at 50 ng/well, anti-his-HRP detection
T3 construct: Coated at 50 ng/well in the dual-ligand ELISA
T3 sequence (Q08722 19-139 limits assumed): as above

Row | Binder | EC50 (recombinant human PD-L1) [ng/mL] | EC50 (recombinant human CD47) [ng/mL] | EC50 [1] [ng/mL]
1 | B1 | 0.989 |  | 
2 | B2 |  | 2.77 | 
3 | B3 | 7.24 | 4.09 | 17.4
